Five molecules from US20240417462A1 (SHANGHAI CELGEN BIO PHARMACEUTICAL, published 2024) can be followed below.

Numbering of substitutions follows the chain as printed.

In experiment [1] the target is T1, mouse TIGIT antigen (mouse, UniProt P86176 29-148, limits assumed).
T1 construct: construct not described; also called murine TIGIT
T1 sequence (looked up): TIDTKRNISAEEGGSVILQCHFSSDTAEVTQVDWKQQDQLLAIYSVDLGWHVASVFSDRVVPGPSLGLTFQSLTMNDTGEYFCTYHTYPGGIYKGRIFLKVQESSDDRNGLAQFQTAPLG
Nature of the experiment: ELISA, coated mouse TIGIT. On the procedure: (§1) The cynomolgus monkey or mouse TIGIT antigen of was coated with the same method as above, the anti-human TIGIT mouse monoclonal antibody was diluted in gradient, and then the anti-mouse Fab secondary antibody was added (Jackson Immuno Research, 515-035-072) for TMB development. ELISA was used to detect the binding of 8 mouse monoclonal antibodies to recombinant cynomolgus monkey TIGIT.
On the technique in general: An ELISA detects its analyte on a solid surface through an enzyme-linked reagent.

Experiment [2] deals with T2, recombinant human TIGIT (Human TIGIT His, Sino Biological, 10917-H08H) (human, UniProt Q495A1 22-138).
T2 construct: range 1-138; bought; also called hTIGIT
T2 sequence (looked up): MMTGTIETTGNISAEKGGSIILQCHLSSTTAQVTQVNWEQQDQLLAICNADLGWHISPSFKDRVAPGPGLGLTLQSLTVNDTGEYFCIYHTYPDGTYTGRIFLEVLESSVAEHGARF
Nature of the experiment: ELISA, coated human TIGIT-His.

For experiment [3], the target named is T3, recombinant cynomolgus monkey TIGIT (cynomolgus monkey, UniProt A0A7N9I9V4 89-209).
T3 construct: construct not described; also called cynomolgus TIGIT
Briefly: ELISA, coated cynomolgus TIGIT. The protocol: as §1

For experiment [4], the target named is T4, full-length human TIGIT expressed on CHO-K cell membrane (CHO-K-TIGIT) (human, UniProt Q495A1 22-244).
T4 construct: whole, on cells; also called CHO-TIGIT; membrane TIGIT
T4 sequence (looked up): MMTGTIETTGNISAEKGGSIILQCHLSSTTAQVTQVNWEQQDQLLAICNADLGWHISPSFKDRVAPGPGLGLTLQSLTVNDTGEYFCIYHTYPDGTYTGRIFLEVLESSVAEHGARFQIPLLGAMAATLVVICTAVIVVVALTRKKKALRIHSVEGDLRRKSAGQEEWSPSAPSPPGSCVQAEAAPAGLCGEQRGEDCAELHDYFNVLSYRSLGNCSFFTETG
Nature of the experiment: flow cytometry, CHO-TIGIT cells.

The target of experiment [5] is T2, recombinant human TIGIT (Human TIGIT …). Briefly: competition ELISA, coated TIGIT-His, CD155-Fc as competitor. The protocol:
In order to evaluate the competition between the anti-human TIGIT mouse monoclonal antibody and CD155 (Human CD155 (Fc Tag): Sino Biological, 10109-H02H) for binding to recombinant human TIGIT (Human TIGIT(His), Sino Biological, 10917-H08H), ELISA detection was performed, and the specific steps were as follows:
Primary antibody incubation: the plate was washed twice with PBS (250 μl/well), and patched dry. 6 μg/ml of CD155 was respectively diluted in a binding solution and added into a 96-well dilution plate at 60 μl/well. Then the screened hybridoma antibody was diluted with the binding solution, (the highest concentration was 30 μg/ml), and diluted to 3 times of concentration, and added into the corresponding dilution plate above at 60 μl/well. After mixing well, the sample was added to the coated 96-well ELISA plate at 100 μl/well. The plate was sealed with a sealing film and placed at 37° C. for 1.5 hours.
Secondary antibody incubation: the blocking solution was discarded, the plate was washed with 250 μl PBST for 3 times, and patched dry.

Experiment [6] deals with T3, recombinant cynomolgus monkey TIGIT. Nature of the experiment: ELISA, recombinant cynomolgus TIGIT coated, anti-mouse Fab secondary antibody, TMB, OD450/655nm. The protocol: as §1

T3 sequence (A0A7N9I9V4 entry or part of it): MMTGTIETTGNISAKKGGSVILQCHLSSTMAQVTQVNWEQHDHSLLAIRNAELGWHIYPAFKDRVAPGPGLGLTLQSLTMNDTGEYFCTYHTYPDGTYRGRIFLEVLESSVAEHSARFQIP

B1: anti-human TIGIT mouse monoclonal antibody 7103-01 (antibody, V domains shown)
VH: QVQLQQPGAELVKPGASVKLSCKASGYTFISYNIYWVKQRPGQGLEWIGGVNPSNGNTNFNENFKSKATLTVDKSSSTAYMQLSSLTSDDSAVYFCTRGNYYGYEFAYWGQGTLVTVSA
VL: DIVMTQSHKFMSTSVGDRVSITCKASQHVSTAVAWYQQKPGQSPKLLIYSPSYRYTGVPDRFTGSGSGTDFTFTISSVQAEDLAVYYCQQHYSTPWTFGGGTKLEIK
notes: also called 31E10-2-1
What is called EC50 is the concentration at which the effect is half-maximal. A word on the IC50: it is the concentration that gives 50% inhibition. Take B1: the binding result in experiment [1] is on record as “no binding”. Moreover, the 50% effective concentration (EC50) in experiment [2] was 0.0647 nM; in experiment [3] it was 1.07 nM; in experiment [4] it was 0.499 nM; in experiment [6], 0.16 µg/mL. For the same molecule, the IC50 in experiment [5] was found to be 0.178 nM.

B2: anti-human TIGIT mouse monoclonal antibody 7103-03 (antibody, V domains shown)
VH: EVQLQQSGPELVKPGASVKISCKTSGYTFTEYTMHWVKQSHGKSLEWIGGINPNNGGTSYNQKFKGKATLTVDKSSSTAYMELRSLTSEDSAVYYCARGAYYRYDFDYWGQGTTLTVSS
VL: B1 VL with H28D, S30R, A34V, P51A
notes: also called 36H8-2-2
Regarding B2, the binding result in experiment [1] is on record as “no binding”. In addition, the EC50 was 0.0674 nM in experiment [2], 0.398 nM in experiment [3], 0.347 nM in experiment [4] and 0.06 µg/mL in experiment [6]. For the same molecule, the IC50 in experiment [5] was 0.141 nM.

B3: anti-human TIGIT mouse monoclonal antibody 7103-04 (antibody, V domains shown)
VH: VQLQESGAELVKPGASVKLSCRASGYTFTDYFVYWVKQRPGQGLEWIGGINPSNGGATFNEKFKNKATLTVDTSSSTAYMQLSSLTSEDSAIYYCTRGNFYGYEFAYWGQGTLVTVSA
VL: B1 VL with M11I, A34V, S93I
notes: also called 40E6-2-2
Consider B3, for which the binding result in experiment [1] is “no binding”. The EC50 was determined as 0.0727 nM in experiment [2], 0.334 nM in experiment [3], 0.44 nM in experiment [4] and 0.05 µg/mL in experiment [6]. Also, the IC50 in experiment [5] was found to be 0.183 nM.

B4: anti-human TIGIT mouse monoclonal antibody 7103-06 (antibody, V domains shown)
VH: EEQLVESGGGLVKPGGTLKLSCAASGFTFSTYAMSWVRQSPEKRLEWVAEISSGGSYTYYSDTVTGRFTISRDNAKNTLYLEMSSLRSEDTAMYYCARKTLDYYALDYWGHGTSVTVSS
VL: DVQITQSPSYLAASPGETITINCRANKTISKYLAWYQEKPGKTNKLLIYSGSRLQSGIPSKFSGSGYGTDFTLTISSLEPEDFAMYYCQQHNEYPWTFGGGTKLEIK
notes: often printed as 7105-06; also called 7105-06; 47A2-1-2
In the case of B4, the binding result in experiment [1] is “no binding”. Besides, the EC50 in experiment [2] was determined as 0.0393 nM; in experiment [3], 0.174 nM; in experiment [4], 0.256 nM; in experiment [6], 0.026 µg/mL. Besides, the IC50 in experiment [5] is 0.0607 nM.

B5: anti-human TIGIT mouse monoclonal antibody 7103-07 (antibody, V domains shown)
VH: B4 VH with E2V, L4V, K43Q, Y57H, Y59F, K76Q, S84N, H111Q
VL: B4 VL with N26S, T28S, L104V
notes: also called 42C12-1-2
Consider B5, for which the binding result in experiment [1] is “no binding”. The EC50 in experiment [2] stood at 0.075 nM; in experiment [3], 0.704 nM; in experiment [4] it was 0.226 nM; in experiment [6], 0.106 µg/mL. The IC50 in experiment [5] is 0.159 nM.
